Experimental data published in publication PMC8396344, “Palmitoylation of Prolactin-Releasing Peptide Increased Affinity for and Activation of the GPR10, NPFF-R2 and NPFF-R1 Receptors: In Vitro Study” (International Journal of Molecular Sciences, 2021).
Read-outs that look alike come from different tables or passages of the source. Starred links: 1 amine or outer side, 2 acyl side, 3 side chain; linkers in the order of their positions; H or OH if unused. Non-standard residues stand in square brackets, D forms with d. Groups on a side chain read outwards from the residue. No end group written: not given here. *: point of attachment. γGlu = O=C(O)[C@H](CCC(=O)[*:2])N[*:1]; Palmitoyl = CCCCCCCCCCCCCCCC(=O)*; NMeF = CN[C@@H](Cc1ccccc1)C(=O)O; 125I = [125I]*

Columns and labels:
[1] = target: T1, neuropeptide Y receptor Y2 (UniProt P49146 1-381); test: radioligand binding; competition with 0.1 nM [^125I]-PYY on U2OS cells with Y1, Y2 or Y5; 25 mM HEPES, 120 mM NaCl, 5 mM MgCl2, 4.7 mM KCl, 1 mM CaCl2, 0.5% BSA, 2 g/L glucose; peptides 10^-12 to 10^-5 M; 60 min at RT; Ki by the Cheng-Prusoff equation
T1 construct: receptor of NPY, Y2; source: U2OS cells stably expressing the receptor, bought: Thermo Fisher Scientific; on cells
T1 sequence (looked up): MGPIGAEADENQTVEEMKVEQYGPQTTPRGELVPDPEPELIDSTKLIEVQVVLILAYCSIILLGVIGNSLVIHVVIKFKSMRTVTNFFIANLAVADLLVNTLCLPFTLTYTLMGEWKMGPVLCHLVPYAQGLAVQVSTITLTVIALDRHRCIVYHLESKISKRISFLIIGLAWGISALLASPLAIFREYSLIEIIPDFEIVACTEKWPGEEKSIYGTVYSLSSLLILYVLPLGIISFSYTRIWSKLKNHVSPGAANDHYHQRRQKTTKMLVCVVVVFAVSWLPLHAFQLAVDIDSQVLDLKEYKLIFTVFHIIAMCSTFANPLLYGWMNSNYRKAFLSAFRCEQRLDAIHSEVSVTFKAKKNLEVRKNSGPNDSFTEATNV

ghrelin receptor [2] = target: T2, ghrelin receptor (UniProt Q92847 1-366)
kappa-opioid receptor [3] = target: T3, kappa-opioid receptor (UniProt P41145 1-380)
GPR10 [4] = target: T4, GPR10 (human, UniProt P49683 1-370)
T4 sequence (looked up): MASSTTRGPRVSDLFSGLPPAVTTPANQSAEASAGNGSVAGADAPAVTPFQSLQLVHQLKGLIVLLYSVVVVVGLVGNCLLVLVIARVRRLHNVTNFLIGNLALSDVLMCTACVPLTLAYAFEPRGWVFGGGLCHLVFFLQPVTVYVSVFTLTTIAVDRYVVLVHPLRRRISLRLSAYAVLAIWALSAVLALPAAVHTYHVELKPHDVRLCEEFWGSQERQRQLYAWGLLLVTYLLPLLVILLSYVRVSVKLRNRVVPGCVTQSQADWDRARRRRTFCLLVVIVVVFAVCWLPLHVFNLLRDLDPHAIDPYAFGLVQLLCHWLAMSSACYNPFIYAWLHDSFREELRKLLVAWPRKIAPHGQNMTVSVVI

[5] = target: T5, neuropeptide Y receptor Y5 (UniProt Q15761 1-445)
T5 sequence (looked up): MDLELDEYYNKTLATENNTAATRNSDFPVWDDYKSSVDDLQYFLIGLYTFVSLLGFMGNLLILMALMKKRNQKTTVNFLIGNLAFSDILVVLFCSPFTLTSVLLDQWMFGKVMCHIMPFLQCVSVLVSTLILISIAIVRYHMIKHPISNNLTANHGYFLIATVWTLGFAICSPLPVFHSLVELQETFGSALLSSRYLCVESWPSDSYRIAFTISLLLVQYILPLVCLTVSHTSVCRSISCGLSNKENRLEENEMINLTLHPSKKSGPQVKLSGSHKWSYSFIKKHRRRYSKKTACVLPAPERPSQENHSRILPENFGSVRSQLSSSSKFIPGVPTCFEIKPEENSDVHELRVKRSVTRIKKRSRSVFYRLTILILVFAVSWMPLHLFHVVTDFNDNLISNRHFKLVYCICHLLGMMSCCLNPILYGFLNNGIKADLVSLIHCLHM

kappa-opioid receptor [6] = target: T3, kappa-opioid receptor; test: radioligand binding; saturation with [^125I]-dynorphin on KOR
ghrelin receptor [7] = target: T2, ghrelin receptor; test: radioligand binding; saturation with [^125I]-ghrelin on GHSR
ghrelin receptor [8] = target: T2, ghrelin receptor; test: cell-based or functional assay
kappa-opioid receptor [9] = target: T3, kappa-opioid receptor; test: cell-based or functional assay
GPR10 [10] = target: T4, GPR10; test: cell-based or functional assay
[11] = target: T5, neuropeptide Y receptor Y5; test: cell-based or functional assay
ghrelin receptor [12] = target: T2, ghrelin receptor; test: radioligand binding; competition with 0.1 nM [^125I]-ghrelin on U2OS cells stably expressing GHSR; 50 mM Tris-Cl pH 7.4, 118 mM NaCl, 5 mM MgCl2, 4.7 mM KCl, 0.1% BSA; peptides 10^-12 to 10^-5 M; 60 min at RT; Ki by the Cheng-Prusoff equation; details: one partner purified
NPFF-R2 = target: T6, NPFF-R2 (UniProt Q9Y5X5 1-522); test: radioligand binding; competition with [^125I]-1DMe on plasma membranes of CHO-K1 cells with NPFF-R2 or NPFF-R1, 5 µg protein/tube; 50 mM Tris-HCl pH 7.4, 60 mM NaCl, 1 mM MgCl2, 0.5% BSA; 60 min at RT; filtration; Ki by the Cheng-Prusoff equation; details: one partner purified
T6 construct: also called NPFF-2R; source: CHO-K1 cell line (AequoScreen), bought: Perkin Elmer

NPFF-R1 [13] = target: T7, NPFF-R1 (UniProt Q9GZQ6 1-430); test: as above; details: one partner purified
T7 construct: also called NPFF-1R; source: CHO-K1 cell line, bought: Perkin Elmer

kappa-opioid receptor [14] = target: T3, kappa-opioid receptor; test: radioligand binding; competition with [^125I]-dynorphin A on plasma membranes of CHO-K1 cells with KOR, 5 µg protein/tube; 50 mM Tris-HCl pH 7.4, 60 mM NaCl, 1 mM MgCl2, 0.5% BSA; 60 min at RT; filtration; Ki by the Cheng-Prusoff equation; details: one partner purified
GPR10 [15] = target: T4, GPR10; test: radioligand binding; competition with [^125I]-PrRP31 on CHO-K1 cells expressing human GPR10; Ki by the Cheng-Prusoff equation; details: one partner purified
[16] = target: T8, neuropeptide Y receptor Y1 (UniProt P25929 1-384); test: radioligand binding; competition with 0.1 nM [^125I]-PYY on U2OS cells with Y1, Y2 or Y5; 25 mM HEPES, 120 mM NaCl, 5 mM MgCl2, 4.7 mM KCl, 1 mM CaCl2, 0.5% BSA, 2 g/L glucose; peptides 10^-12 to 10^-5 M; 60 min at RT; Ki by the Cheng-Prusoff equation; details: one partner purified
T8 construct: receptor of NPY, Y1; source: U2OS cells stably expressing the receptor, bought: Thermo Fisher Scientific; on cells
T8 sequence (looked up): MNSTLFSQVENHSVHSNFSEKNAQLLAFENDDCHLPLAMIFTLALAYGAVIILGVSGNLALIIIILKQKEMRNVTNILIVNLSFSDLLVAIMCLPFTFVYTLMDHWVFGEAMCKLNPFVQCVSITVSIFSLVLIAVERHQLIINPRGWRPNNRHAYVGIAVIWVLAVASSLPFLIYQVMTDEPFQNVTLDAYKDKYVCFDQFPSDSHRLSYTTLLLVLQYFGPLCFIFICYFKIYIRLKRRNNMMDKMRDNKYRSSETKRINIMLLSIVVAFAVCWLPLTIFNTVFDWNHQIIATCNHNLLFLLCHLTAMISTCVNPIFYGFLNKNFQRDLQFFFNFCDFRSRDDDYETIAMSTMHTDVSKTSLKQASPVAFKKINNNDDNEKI

[17] = target: T5, neuropeptide Y receptor Y5; test: as above; details: one partner purified
NPFF-R1 [18] = target: T7, NPFF-R1; test: radioligand binding; saturation with [^125I]-1DMe on membranes from CHO-K1 cells expressing NPFF-R1; details: one partner purified

Work on Palm-PrRP31 (peptide) yielded a Ki [1] greater than 10000 nM, an EC50, agonist mode, β-lactamase reporter assay (ghrelin receptor [2]) of 1270 nM and an EC50, agonist mode, β-lactamase reporter assay (kappa-opioid receptor [3]) greater than 10000 nM. For the same molecule, the EC50, agonist mode, β-lactamase reporter assay (GPR10 [4]) was 0.0718 nM and the EC50, agonist mode, β-lactamase reporter assay [5] was 56.5 nM.

Molecule [^125I]-dynorphin A (peptide) has a Kd (kappa-opioid receptor [6]) of 2.38 nM.

With [^125I]-ghrelin (peptide) the Kd (ghrelin receptor [7]) was 0.44 nM.

B1: Palm^11-PrRP31 (peptide)
peptide: SRTHRHSMEIK([γGlu-Palmitoyl])TPDINPAWYASRGIRPVGRF-NH2
notes: analog of human PrRP31 with Arg11 replaced by Lys11 that carries palmitic acid through a gamma-Glu linker; numbers count on: the peptide PrRP31; source: synthetic peptide, palmitoylated on resin, purified (HPLC, purity greater than 95%)
In the case of B1, the “EC50, agonist mode, β-lactamase reporter assay” value (“EC50, agonist mode” for short) (ghrelin receptor [8]) is reported as 1070 nM, the “EC50, agonist mode” value (kappa-opioid receptor [9]) is reported as greater than 10000 nM and the “EC50, agonist mode” value (GPR10 [10]) is reported as 0.0391 nM. The “EC50, agonist mode” value [11] was 583 nM, the Ki (ghrelin receptor [12]) was 2800 nM and the Ki (NPFF-R2) was 7.66 nM. For the same molecule, the Ki (NPFF-R1 [13]) was 13.5 nM, the Ki (kappa-opioid receptor [14]) was 4280 nM and the Ki (GPR10 [15]) was 3.44 nM. It also gave a Ki [16] greater than 10000 nM, a Ki ([1]; one partner purified) greater than 10000 nM and a Ki [17] of 362 nM.

B2: [^125I]-1DMe (peptide)
peptide: [dY](125I)L[NMeF]QPQRF-NH2
notes: 1DMe iodinated at D-Tyr1; numbers count on: the peptide
For B2, the Kd (NPFF-R1 [18]) was 0.94 nM.
